Assay results reported in paper PMC13624870.

Legend:
amyloid-β 40 (Aβ40) [1] = experiment: ITC; ZF2–4 (300 µM) titrated into monomeric Aβ40 (20 µM); one-set-of-sites model; 20 mM HEPES, pH 7.4, 1 mM DTT; 10°C; heat of dilution of ZF2–4 subtracted
[2] = molecular target: fluorophore-conjugated Aβ40 (HF488Aβ40); experiment: other fluorescence titration; fluorescence quenching of fluorophore-conjugated Aβ40 (HF488Aβ40) by ZF2–4; conditions in Figure S9
amyloid-β 40 (Aβ40) [3] = molecular target: amyloid-β 40 (Aβ40)
[4] = molecular target: uniformly 15N-labeled Aβ40; experiment: NMR titration; 2D 1H–15N SOFAST–HMQC of 20 µM 15N-labeled Aβ40 with 200 µM ZF2–4 or ZFx′; 20 mM HEPES, pH 7.4, 1 mM DTT, 10% v/v D2O; 10°C

Kd (amyloid-β 40 (Aβ40) [1]): 1.96 µM
dH (amyloid-β 40 (Aβ40) [1]): -1.31 kcal/mol
stoichiometry N (Aβ40 per ZF2–4) (amyloid-β 40 (Aβ40) [1]): 1.7
Kd [2]: 0.32 µM
stoichiometry N (Aβ40 per ZF2–4) [2]: 1.5
decrease in the size of Aβ40 liquid droplets (LLPS, confocal microscopy) with equimolar ZF2–4 (100 µM each) relative to Aβ40 alone (amyloid-β 40 (Aβ40) [3]): 93.7%
average decrease in NMR signal intensity of 15N-labeled Aβ40 [4]: 41.9%
Substance: ZF2–4 (tandem array of three Cys2His2-type zinc finger modules of PARIS) (domain or fragment)
